Key:
[1] = molecular target: T1, Trx-1α (thioredoxin-tagged HIF-1α 1-350, bHLH-PASA-PASB) (UniProt Q16665 1-350); test: ELISA, Trx-1α on Ni plate, inhibition of GST-1β binding
T1 construct: range 1-350; not shown: Thioredoxin-His6 tag of vector pET32
Protocol: (§1) IC₅₀ values for the compound=3.7 μM/8.8 μM for 1α/2α.
(§2) 25 μL of His-tagged HIF-α protein (either Trx-1α, Trx-2α, 1α PASB, or 2α PASB) at 0.1 μM in HIF assay buffer were added to individual wells of a Pierce Ni²⁺-coated 96-well plate (Thermo) in triplicate. The plate was rocked gently at room temperature for 1 hr, before washing with 3×200 μL assay buffer (5 min incubation per wash). 25 μL of compounds and/or DMSO at the stated concentrations were added to the plate and allowed to equilibrate for 30 min prior to the addition of 25 μL of GST-1β at 0.2 μM in assay buffer for 1 hr. For conditions in which no compound or DMSO were used, GST-1β was added as a 0.1 μM solution. After incubation with GST-1β, the wells were washed with 3×200 μL assay buffer then 1×200 μL PBS. The wells were then incubated with 100 μL mouse α-GST antibody (Thermo, MS-707-P) at a 1/1000 dilution in PBS supplemented with 0.1% Tween-20 (PBST) and 2% non-fat powdered milk (Marvel) for 1 hr, followed by 3×200 μL washed with PBS. 100 μL of secondary HRP-conjugated α-mouse antibody (GE Healthcare) was added at a 1/6000 dilution in 2% milk/PBST for 1 hr, then washed with 3×200 μL PBS. […] Absorbance was read at 450 nm using a Tecan Infinite M200 Pro plate reader. Data were fitted and IC₅₀ values determined by non-linear regression using GraphPad Prism 6.

[2] = molecular target: T2, Trx-2α (thioredoxin-tagged HIF-2α 1-360, bHLH-PASA-PASB) (UniProt Q99814 1-360); test: ELISA, Trx-2α on Ni plate, inhibition of GST-1β binding
T2 construct: range 1-360; not shown: Thioredoxin-His6 tag of vector pET32
T2 sequence (Q99814 1-360): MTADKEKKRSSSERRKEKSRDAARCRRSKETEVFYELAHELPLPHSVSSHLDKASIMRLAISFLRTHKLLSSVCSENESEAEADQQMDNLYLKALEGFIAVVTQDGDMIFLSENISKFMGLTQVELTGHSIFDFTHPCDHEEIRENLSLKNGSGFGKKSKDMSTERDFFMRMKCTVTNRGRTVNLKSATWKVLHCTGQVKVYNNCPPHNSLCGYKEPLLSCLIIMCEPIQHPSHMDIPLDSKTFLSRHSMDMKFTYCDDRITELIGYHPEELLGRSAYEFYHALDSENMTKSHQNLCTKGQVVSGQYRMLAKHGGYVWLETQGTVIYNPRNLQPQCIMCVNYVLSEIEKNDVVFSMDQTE
Protocol: as §1, §2

[3] = molecular target: T2, Trx-2α (thioredoxin-tagged HIF-2α …); test: thermal shift assay, 1 mM peptide
Protocol: (§3) Thermal denaturation of HIF proteins was performed in 20 μL reactions in triplicate using a Bio-Rad CFX Connect Real-Time System. Proteins were used at either 5 μM (Trx-1α, Trx-2α and GST-1β) or 15 μM (His-tagged PASB domains) in HIF assay buffer, with 10 mM DTT and SYPRO orange dye (Life Technologies) at a final concentration of 8×(relative to 5000×stock), and supplemented with either DMSO or compound dissolved in DMSO at the stated concentrations. The reaction plate was assembled on ice, then transferred to the pre-chilled thermal cycler, held at 10° C. for 5 min (heated lid, 105° C.), then the temperature ramped to 95° C. Fluorescence was recorded at 0.5° C. increments, holding for 5 sec at each temperature. Data were plotted using GraphPad Prism 6, and melting temperatures calculated using the first derivative method in which the peak (i.e. the steepest transition between data points) represents the point at which 50% of the protein sample is denatured. Errors are quoted as the inherent error associated with the first derivative of the data, i.e. ±0.25° C. for Tₘ values and ±0.5° C. for ΔTₘ values.

[4] = molecular target: T3, 1β PASB (HIF-1β PASB domain, 356-474) (UniProt P27540 356-474); test: thermal shift assay, 1 mM peptide
T3 construct: range 356-474; not shown: His6 tag of vector pET28
T3 sequence (P27540 356-474): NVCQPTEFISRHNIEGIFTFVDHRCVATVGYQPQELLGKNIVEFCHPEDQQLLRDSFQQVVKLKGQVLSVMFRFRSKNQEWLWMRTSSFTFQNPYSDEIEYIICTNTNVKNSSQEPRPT
Protocol: as §3

[5] = molecular target: T4, 1α PASB (HIF-1α PASB domain, 238-349) (UniProt Q16665 238-349, labelled with NT-647-NHS dye in MST); test: thermal shift assay, 1 mM peptide
T4 construct: range 238-349; not shown: His6 tag of vector pET28, then Met
Protocol: as §3

[6] = molecular target: T1, Trx-1α (thioredoxin-tagged HIF-1α …); test: thermal shift assay, 1 mM peptide
Protocol: as §3

[7] = molecular target: T5, 2α PASB (HIF-2α PASB domain, 240-350) (UniProt Q99814 240-350, labelled with NT-647-NHS dye in MST; 15N (and 13C 15N) labelled in NMR); test: thermal shift assay, 1 mM peptide
T5 construct: range 240-350; also called PAS B domain of HIF-2α; not shown: His6 tag of vector pET28, then Met
T5 sequence (Q99814 240-350): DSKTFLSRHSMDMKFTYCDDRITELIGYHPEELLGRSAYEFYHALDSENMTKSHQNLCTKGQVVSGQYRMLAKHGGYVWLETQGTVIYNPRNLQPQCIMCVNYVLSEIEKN
Protocol: as §3

[8] = molecular target: T5, 2α PASB (HIF-2α PASB domain, 240-350); test: MST, peptide titrated into fluorescently labelled 2α PASB
Protocol: (§4) Microscale thermophoresis (MST) was performed to determine Kd of peptide binding to fluorescently labelled HIF-1α/2α PASB domains.
(§5) 0.5 mL of 1α or 2α PASB protein stocks in HIF storage/assay buffer were dialysed against 1 L of MST labelling buffer (100 mM NaHCO₃ pH 8, 150 mM NaCl and 5% glycerol) for 1.5 hr at 4° C., then against 1 L of fresh labelling buffer at 4° C. overnight. 100 μL of each dialysed protein diluted to 10 μM were incubated with 100 μL of 30 μM NT-647-NHS dye (NanoTemper protein labelling kit) for 20 min in the dark, then exchanged into 650 μL HIF assay buffer supplemented with 0.05% Tween-20 using the supplied gravity flow purification columns. A dilution series of cyclo-CRVIIF (SEQ ID NO 4) or alanine scan analogues (in HIF assay buffer, 10% DMSO) was mixed with equal volumes of labelled 1α PASB or 2α PASB at 100 nM and allowed to equilibrate for 10 min. Samples were loaded into hydrophilic capillaries and, after optimising the power, MST was performed using a Monolith […] instrument (NanoTemper). Data were analysed using NT Analysis Software using the Temperature Jump analysis mode.

[9] = molecular target: T4, 1α PASB (HIF-1α PASB domain, 238-349); test: MST, peptide titrated into fluorescently labelled 1α PASB
Protocol: as §4, §5

[10] = molecular target: T6, HIF-2α (construct not given) (UniProt Q99814 1-360, limits assumed); test: HIF-2 ELISA, inhibition of HIF-2α/HIF-1β dimerisation
T6 construct: also called HIF-2 ELISA
T6 sequence (Q99814 1-360 limits assumed): as the sequence (Q99814 1-360) above

[11] = molecular target: T5, 2α PASB (HIF-2α PASB domain, 240-350); test: fluorescence polarisation, 2α PASB titrated into 2 µM fluor-CRVIIF
Protocol: Kd values were determined by fluorescence polarisation (FP) using fluorescently labelled cyclo-CRVIIF (fluor-CRVIIF) (SEQ ID NO 4) dissolved in DMSO as the probe. In each condition, the concentration of the probe was kept constant (2 μM, 1% DMSO) whilst proteins were titrated. Reactions were performed in HIF assay buffer with the addition of 0.1% Triton X-100. Samples were assembled in black 96-well plates (40 μL/well, in triplicate) and allowed to equilibrate for 2 hr in the dark. Plates were read using a POLARstar Omega plate reader (BMG Labtech) at Ex: 490 nm, Em: 520 nm, with target gain set to 300 mP. Polarisation data were plotted and Kd values calculated by non-linear regression using GraphPad Prism 6.

[12] = molecular target: T1, Trx-1α (thioredoxin-tagged HIF-1α …); test: competition ELISA: His-tagged Trx-1α on Ni plate, peptide titrated, binding of GST-1β (blocked partner) detected with anti-GST, A450
Protocol: as §1, §2

[13] = molecular target: T5, 2α PASB (HIF-2α PASB domain, 240-350); test: ELISA, 2α PASB on Ni plate, inhibition of GST-1β binding
Protocol: (§6) ELISA assays were conducted using 1α/2α PASB domains.
as §2

[14] = molecular target: T4, 1α PASB (HIF-1α PASB domain, 238-349); test: ELISA, 1α PASB on Ni plate, inhibition of GST-1β binding
Protocol: as §6, §2

[15] = molecular target: T2, Trx-2α (thioredoxin-tagged HIF-2α …); test: competition ELISA: His-tagged Trx-2α on Ni plate, peptide titrated, binding of GST-1β (blocked partner) detected with anti-GST, A450
Protocol: as §1, §2

[16] = molecular target: T4, 1α PASB (HIF-1α PASB domain, 238-349); test: competition ELISA: 1α PASB on Ni plate, peptide titrated, blocked partner GST-1β; the value stands in the panel without a name, the ELISA fits give IC50
Protocol: as §2

[17] = molecular target: T5, 2α PASB (HIF-2α PASB domain, 240-350); test: competition ELISA: 2α PASB on Ni plate, peptide titrated, blocked partner GST-1β; the value stands in the panel without a name, the ELISA fits give IC50
Protocol: as §2

[18] = molecular target: T5, 2α PASB (HIF-2α PASB domain, 240-350); test: competition ELISA: 2α PASB on Ni plate, peptide titrated, blocked partner GST-1β; the value stands in the panel without a name, the ELISA fits give IC50; the fall is only partial
Protocol: as §2

[19] = molecular target: T4, 1α PASB (HIF-1α PASB domain, 238-349); test: competition ELISA: 1α PASB on Ni plate, peptide titrated, blocked partner GST-1β; the value stands in the panel without a name, the ELISA fits give IC50; the fall is only partial
Protocol: as §2

Binder	ΔTm [3] [° C.]	ΔTm [4] [° C.]	ΔTm [5] [° C.]	ΔTm [6] [° C.]	ΔTm [7] [° C.]	Kd [8] [µM]	Kd [9] [µM]	other results
CKLIIF (cyclic peptide (first amino acid joined to the last)) [cyclo-CKLIIF (SEQ ID NO 2)]	-2.5	-0.5	-1	-1.5	-2.5	4.6	2.5	IC50 [1]: 3.7 µM; IC50 [2]: 8.8 µM
cyclo(C(FITC‑maleimide)RVIIF) (not fully specified; printed as fluor-CRVIIF, also called FITC-CRVIIF) [fluorescently labelled cyclo-CRVIIF (fluor-CRVIIF) (SEQ ID NO 4)]								Activity as measured by a HIF-2 ELISA [10]: 1.46 µM; Kd [11]: 18.5 µM
CRVIIF (cyclic peptide (cyclo-, first amino acid joined to the last), also called Compound C) [cyclo-CRVIIF (SEQ ID NO 4)]	-2	-0.5	-1.5	-1	-2.5	133	158	IC50 [12]: 115 µM; IC50 [13]: 15.2 µM; IC50 [14]: 5.4 µM; IC50 [15]: 244 µM
CAVIIF (also called alanine scan peptide of CRVIIF, position 2 (R to A))								IC50 [16]: 112 µM; IC50 [17]: 22.3 µM
CRVIIA (also called alanine scan peptide of CRVIIF, position 6 (F to A))								IC50 [18]: 37.1 µM; IC50 [19]: 110 µM

— US20190033318A1 (UNIVERSITY OF SOUTHAMPTON, published 2019)
